According to US7572574B2, “Method of measuring neprilysin activity” (Riken, priority 2002, dated 2009):

Target: T1, neprilysin (Mus musculus, UniProt Q61391)
T1 construct: endogenous in cells; host or cells: mouse fetal cerebral cortex and hippocampus primary cultured nerve cells, paraformaldehyde-fixed
T1 sequence (Q61391 1-750): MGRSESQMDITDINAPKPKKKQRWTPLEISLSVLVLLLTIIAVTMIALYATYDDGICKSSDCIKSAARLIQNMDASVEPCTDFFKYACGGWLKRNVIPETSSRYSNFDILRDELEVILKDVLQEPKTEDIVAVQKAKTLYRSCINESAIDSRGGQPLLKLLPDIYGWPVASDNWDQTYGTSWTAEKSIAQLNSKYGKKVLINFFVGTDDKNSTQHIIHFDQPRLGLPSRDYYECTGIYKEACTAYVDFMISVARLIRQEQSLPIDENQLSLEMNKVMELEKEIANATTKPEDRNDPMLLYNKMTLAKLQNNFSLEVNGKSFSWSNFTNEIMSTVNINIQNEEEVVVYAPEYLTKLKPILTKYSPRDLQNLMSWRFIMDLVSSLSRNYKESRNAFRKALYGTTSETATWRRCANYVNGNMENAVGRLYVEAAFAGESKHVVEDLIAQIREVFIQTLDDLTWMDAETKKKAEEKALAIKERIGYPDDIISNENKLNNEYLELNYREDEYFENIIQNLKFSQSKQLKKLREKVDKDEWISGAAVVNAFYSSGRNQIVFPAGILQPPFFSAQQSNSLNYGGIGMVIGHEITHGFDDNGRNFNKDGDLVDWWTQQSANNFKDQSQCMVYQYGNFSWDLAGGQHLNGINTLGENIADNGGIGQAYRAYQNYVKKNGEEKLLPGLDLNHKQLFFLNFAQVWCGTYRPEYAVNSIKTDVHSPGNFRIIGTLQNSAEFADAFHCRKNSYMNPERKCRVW
Assay: Neprilysin activity staining in mouse primary cultured nerve cells (fluorescent substrate, confocal microscopy)
Format: cell-based
Conditions: for action against the neprilysin activity or its gene expression: general statement in the description
Description: Nerve cells were prepared from the mouse fetal cerebral cortex and hippocampus and seeded on a poly-L-coated chamber slide (8 chambers, IWAKI 4730-040) at a density of 1×10^5 cells/chamber, followed by incubation for 7 days. After completion of the incubation, the cells were washed with TBS (pH 7.4) and fixed for 12.5 minutes at 20° C. with a paraformaldehyde solution (1.5% paraformaldehyde/50 mM phosphate buffer, pH 6.8). After the cells were washed twice with TBS, 0.2 ml of substrate solution (glutaryl-alanyl-alanyl-phenylalanyl-4-methoxy-2-naphthylamide, Sigma G3769, fmal concentration: 0.5 mM; 0.05 M Tris-HCI buffer, pH 7.4 (pH was adjusted to 7.4 at 4° C.)) was added to the cells, followed by reacting at 4° C. for 48 hours. After completion of the reaction, 25 μl of the solution mixture of aminopeptidase (Sigma L-5006, final concentration: 20.4 μg/ml) and phosphoramidone (Peptide Inst. 4082, final concentration: 10 μM) and 25 μl of nitrosalicylaldehyde solution (6 mM) were further added thereto sequentially. The mixture was reacted at 37° C. for 30 minutes. The reaction was completed by washing the cells twice with TBS. Using argon laser and a filter for rhodamine, positive stained images were observed under a confocal laser scanning microscope (FIG. 1). When the substrate is degraded by neprilysin, an insoluble fluorescent reaction product is formed so that the sites where neprilysin is present are visualized in yellow.
Nerve cells were prepared from the mouse fetal cerebral cortex and hippocampus, followed by incubation as in EXAMPLE 1. On day 7 of the incubation, somatostatin (somatostatin 14 and 28, final concentration: 1 μM) was added to the cells, followed by incubation for further 24 hours. […] To investigate in further detail, these stained images were quantified by image analysis software (Nippon Roper Co., Ltd., MetaVue) and examined.

Row | action against the neprilysin activity or its gene expression | neprilysin activity in the nerve cells compared to control added with no peptide (mouse fetal cerebral cortex and hippocampus primary nerve cells, peptide final concentration 1 μM, 24 hours, stained images observed) | Substance
1 | inhibitorily acts | – | VIP: vasoactive intestinal peptide, publicly known neuropeptide
2 | inhibitorily acts | markedly decreased | PACAP: pituitary adenylate cyclase-activating polypeptide, publicly known neuropeptide
